doi:10.1101/2025.09.09.675193 (bioRxiv, 2025)
Square brackets hold non-standard residues; d marks the D form. Ends that are not written are not given here. * marks the point of attachment. 5FAM = O=C1OC2(c3ccc(O)cc3Oc3cc(O)ccc32)c2ccc(C(=O)*)cc21; pT = C[C@@H](OP(=O)(O)O)[C@H](N)C(=O)O; pS = N[C@@H](COP(=O)(O)O)C(=O)O

Key:
[1] = molecular target: recombinant TOPBP1 BRCT domains 7+8 (residues 1263-1495) (human, UniProt Q92547 1263-1495); experiment: fluorescence polarisation
[2] = molecular target: recombinant TOPBP1 BRCT domains 4+5 (residues 548-741) (human, UniProt Q92547 548-741); experiment: fluorescence polarisation
DDIAS OB fold WT = molecular target: T1, DDIAS OB fold WT (Homo sapiens, UniProt Q8IXT1 1-168); experiment: EMSA
T1 sequence: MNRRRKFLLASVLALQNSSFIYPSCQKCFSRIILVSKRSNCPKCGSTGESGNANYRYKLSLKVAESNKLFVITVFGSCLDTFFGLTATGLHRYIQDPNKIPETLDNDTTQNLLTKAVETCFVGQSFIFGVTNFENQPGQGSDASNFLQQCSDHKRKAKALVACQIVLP

DDIAS OB fold C25A/C28A = molecular target: T2, DDIAS OB fold C25A/C28A (Homo sapiens, UniProt Q8IXT1 1-168, C25A;C28A); experiment: EMSA
T2 sequence: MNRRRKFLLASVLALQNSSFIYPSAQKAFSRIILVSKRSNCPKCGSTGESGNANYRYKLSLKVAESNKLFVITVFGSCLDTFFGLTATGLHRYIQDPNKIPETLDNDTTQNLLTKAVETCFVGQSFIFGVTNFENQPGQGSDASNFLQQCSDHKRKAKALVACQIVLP

recombinant TOPBP1 BRCT domains 7+8 (residues 1263-1495), sequence (Q92547 1263-1495): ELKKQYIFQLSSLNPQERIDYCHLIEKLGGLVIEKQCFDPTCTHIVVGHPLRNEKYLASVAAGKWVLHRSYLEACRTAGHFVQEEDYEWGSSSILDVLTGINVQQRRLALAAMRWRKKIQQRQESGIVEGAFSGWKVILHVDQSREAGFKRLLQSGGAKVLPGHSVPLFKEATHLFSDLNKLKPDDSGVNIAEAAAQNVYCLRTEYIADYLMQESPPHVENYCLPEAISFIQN
recombinant TOPBP1 BRCT domains 4+5 (residues 548-741), sequence (Q92547 548-741): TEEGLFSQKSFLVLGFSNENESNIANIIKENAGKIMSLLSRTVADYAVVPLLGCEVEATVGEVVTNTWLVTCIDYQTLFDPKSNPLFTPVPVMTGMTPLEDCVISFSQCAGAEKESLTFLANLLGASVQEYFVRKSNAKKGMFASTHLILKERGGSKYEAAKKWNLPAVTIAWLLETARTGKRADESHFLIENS

5FAM-GSGEGSYDA[pS]ADLFDD (also: phosphoserine at Ser676 (S6 or S10)) [DDIAS-pS676 peptide, 5-carboxy-fluorescein labelled]
binding result [1]: binds

5FAM-GSGETRSAW[pS]PELFS (also: phosphoserine at Ser993 (position not mappable)) [DDIAS-pS993 peptide, 5-carboxy-fluorescein labelled]
binding result [1]: binds

5FAM-GSGETDSDEWVPP[pT]TQK (also: phosphothreonine at Thr868 (position not mappable)) [DDIAS-pT868 peptide, 5-carboxy-fluorescein labelled]
binding result [2]: binds

GATGAGATTGAGGCTGGCCTGCAGGCATGCAAGCACCTGG (ssDNA) [Cy5 40-nt ssDNA]
binding result (DDIAS OB fold WT): binds
binding result (DDIAS OB fold C25A/C28A): no binding

B1: Cy5 40-bp dsDNA (dsDNA)
DNA 1: GATGAGATTGAGGCTGGCCTGCAGGCATGCAAGCACCTGG
DNA 2: CCAGGTGCTTGCATGCCTGCAGGCCAGCCTCAATCTCATC
binding result (DDIAS OB fold WT): no binding
